Consider 16 sequences from the nanobody polyreactivity screen of Harvey et al. (2022).

The data set is described as follows: yeast display, Sf9 membrane polyspecificity reagent, FACS + sequencing; frameworks hold sequencing errors. In short, it runs like this: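 Nanobodies from a synthetic yeast display library (Saccharomyces cerevisiae BJ5465), induced 36–48 hours with galactose, were stained 1 hour at 4 °C with 10% biotinylated, detergent-solubilized Sf9 membrane reagent, enriched on streptavidin microbeads, then FACS-sorted. Anti-HA (expression) and streptavidin (reagent binding) fluorescence set low and high (top ~1%) gates. Polyreactivity labels come from the gate of origin. Genes were colony-PCR amplified, MiSeq 2 × 250 sequenced and filtered by CDR length.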
Take “QVQLVESGGGLVQAGGSLRLSCAASGFTFEKNAMGWYRQAPGKERELVAAISRGGSTYADSVKGRFTISRDNAKNTVYLQMNSLKPEDTAVYYCAGDTVYIFSSAINGEFGYWGQGTQVTVSS”: the “polyreactivity (PSR sort gate)” value is given as “low polyreactivity”.
Take “QVQLVESGGGLVQAGGSLRLSCAASGFTFERNAMGWYRQAPGKERELVATISQSGTNTYYADSVKGRFTISRDNAKNTVYLQMNSLKPEDTAVYYCNARYLFYRYDYWGQGTQVTVSS”: the “polyreactivity (PSR sort gate)” value is listed as “low polyreactivity”.
“QVQLVESGGGLVQAGGSLRLSCAASGFTFEYYAMGWYRPAPGKERELVADITTSSAGTYYADSVKGRFTISRDNAKNTVYLQMNSLKPEDTAVYYCNRDDLNTGEDLDYWGQGTQVTVSS”: the “polyreactivity (PSR sort gate)” value was “low polyreactivity”.
The entry for “QVQLVESGGGLVQAGGSLRLSCAASGFTFFDYVMGWYRQAPGKERELVAAISSSGGSTNYADSVKGRFTISRDHAKNTVYLQMNSLKPEDTAVYYCNKVTYGYAYWRYDGYDYWGQGTQVTVSS” is “low polyreactivity”; for “QVQLVESGGGLVQAGGSLRLSCAASGFTFFIYAMGWYTQAPGKEREFVAAITGSGGSTYYADSEKGRFTISRDNAKNTVYLQMNSLKTEVTAVYYCATGYWGRRRGGWRSGYWGQGTQVTVSS” it is “high polyreactivity”; for “QVQLVESGGGLVQAGGSLRLSCAASGFTFFKYAMGWYRQAPGKERELVAAISSSGGSTYYADSVKGRFTISRDNAKNTVYLQMNSLKPEDSAVYYCNRPAAVYFKLVTAYDYWGQGTQVTVSS” it is “high polyreactivity”.
The entry for “QVQLVESGGGLVQAGGSLRLSCAASGFTFFLNAMVWSRPAPGKERELVAAITYSGDSTYYADSVKGRFTISRDNAKNTVYLQMNSLKPEDTAVYYCAAASKFGLYEYEYWGQGTQVTVSS” is “low polyreactivity”; for “QVQLVESGGGLVQAGGSLRLSCAASGFTFFLYTMGWYRQAPGKERELVATITSAGTTNYADSVKGRFTISRDNAKNTVYLQMHSLKPEDTAVDYCNADRWEYDYWGQGTQVTVSS” it is “low polyreactivity”; for “QVQLVESGGGLVQAGGSLRLSCAASGFTFFSKYVMGWYSQAPRKERELVAAISSSGGTTYYADSVKGRFTISRDNAKNTVYLQMNSLKPEDTAVYYCAARLVSSTFQYNMYYWGQGTQVTVSS” it is “high polyreactivity”.
The entry for “QVQLVESGGGLVQAGGSLRLSCAASGFTFFSNAMGWYRQAPGKEREFVASISRSGGRTYYADSVKGRFTISRDNAKNTVYLQMNSLKPEDTAVYYCAADVPYYLHNHRYGYWGQGTQVTVSS” is “high polyreactivity”; for “QVQLVESGGGLVQAGGSLRLSCAASGFTFFYYVMGWYRQAPGKERELVAAISSGGSTYYADSVKGRFTISRDNAKNTVYLQMNSLKPEDTAVYYCNAVYRSTWWGYDYWGQGTQVTVSS” it is “high polyreactivity”.
On to “QVQLVESGGGLVQAGGSLRLSCAASGFTFFYYVMGWYRQAPGKERELVAAITRGGSTYYADSVKGRFTISRDNAKNTVYLQMNSLKPEDTAVYYCNVAEPGYYYGYGDYGMDYWGQGTQVTVSS”, for which the “polyreactivity (PSR sort gate)” value is reported as “high polyreactivity”.
The entry for “QVQLVESGGGLVQAGGSLRLSCAASGFTFGANVMGWYRQAPGKERELVAAINTRGSRTYYADSVKGRFTISRDIAKNTVYLQMNSLKPEDTAVYYCAAALRKEYDYWGQGTQVTVSS” is “high polyreactivity”; for “QVQLVESGGGLVQAGGSLRLSCAASGFTFGANVMGWYRQAPGKERELVAAITSSGGSTYYADSVKGRFTISRDKAKNTVYLQMYSLKPEDTAVYYCNRRRGAYYGYYWGQGTQVTVSS” it is “high polyreactivity”.
The entry for “QVQLVESGGGLVQAGGSLRLSCAASGFTFGDYAMYWVRQAPGKGLEWVSSIDSRGGSTYYADSVKGRFTISRDNAKNTVYLQMNSLKPEDTAVYYCAKPGNHRYDYWGQGTQVTVSS” is “high polyreactivity”.
The entry for “QVQLVESGGGLVQAGGSLRLSCAASGFTFGENAIGWYRQAPGKERELVAAIRYSGGSTYYADSVKGRFTISRDNAKNTVYLQMNSLKPEDTAVYYCNADTYALGAAVIPGDEYWGQGTQVTVSS” is “low polyreactivity”.
